Experimental data as given in the supplement of paper PMC5998384.

How the values were obtained:
[1] = tested on: HeLa Kyoto; test: solubility in G1/S (NP-40 vs SDS abundance) (log2 ratio); higher = more soluble; conditions: cell cycle stage: G1/S
[2] = tested on: HeLa Kyoto; test: solubility change mitosis vs G1/S (difference of NP-40 vs SDS log2 ratios) (log2 ratio difference); higher = more soluble in mitosis
[3] = tested on: HeLa Kyoto; test: melting temperature (median over replicates), in situ; higher = more thermally stable
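For melting temperature (median over replicates), in situ in this document: HeLa Kyoto cells synchronized by double thymidine or nocodazole block, proteins quantified by TMT10plex mass spectrometry, three independent biological replicates.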
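For solubility change mitosis vs G1/S (difference of NP-40 vs SDS log2 ratios) in this document: synchronized HeLa Kyoto cells (double thymidine block for G1/S, nocodazole release for mitosis), protein amounts in NP-40 versus SDS lysates quantified by mass spectrometry, three biological replicates.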
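For solubility in G1/S (NP-40 vs SDS abundance) in this document: HeLa Kyoto cells arrested at G1/S by double thymidine block, proteins quantified by TMT10plex mass spectrometry in mild NP-40 versus SDS extracts, three biological replicates.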

Substance | solubility in G1/S (log2) [1] | solubility change mitosis (log2) [2] | melting temperature ([3]; cell cycle stage: G1/S) [°C] | melting temperature ([3]; cell cycle stage: mitosis) [°C]
MAHAGGGSGGSGAGGPAGRGLSGARWGRSGSAGHEKLPVHVEDALTYLDQVKIRFGSDPATYNGFLEIMKEFKSQSIDTPGVIRRVSQLFHEHPDLIVGFNAFLPLGYRIDIPKNGKLNIQSPLTSQENSHNHGDGAEDFKQQVPYKEDKPQVPLESDSVEFNNAISYVNKIKTRFLDHPEIYRSFLEILHTYQKEQLNTRGRPFRGMSEEEVFTEVANLFRGQEDLLSEFGQFLPEAKRSLFTGNGPCEMHSVQKNEHDKTPEHSRKRSRPSLLRPVSAPAKKKMKLRGTKDLSIAAVGKYGTLQEFSFFDKVRRVLKSQEVYENFLRCIALFNQELVSGSELLQLVSPFLGKFPELFAQFKSFLGVKELSFAPPMSDRSGDGISREIDYASCKRIGSSYRALPKTYQQPKCSGRTAICKELDHWTLLQGSWTDDYCMSKFKNTCWIPGYSAGVLNDTWVSFPSWSEDSTFVSSKKTPYEEQLHRCEDERFELDVVLETNLATIRVLESVQKKLSRMAPEDQEKFRLDDSLGGTSEVIQRRAIYRIYGDKAPEIIESLKKNPVTAVPVVLKRLKAKEEEWREAQQGFNKIWREQYEKAYLKSLDHQAVNFKQNDTKALRSKSLLNEIESVYDEHQEQHSEGRSAPSSEPHLIFVYEDRQILEDAAALISYYVKRQPAIQKEDQGTIHQLLHQFVPSLFFSQQLDLGASEESADEDRDSPQGQTTDPSERKKPAPGPHSSPPEEKGAFGDAPATEQPPLPPPAPHKPLDDVYSLFFANNNWYFFLRLHQTLCSRLLKIYRQAQKQLLEYRTEKEREKLLCEGRREKGSDPAMELRLKQPSEVELEEYYPAFLDMVRSLLEGSIDPTQYEDTLREMFTIHAYVGFTMDKLVQNIARQLHHLVSDDVCLKVVELYLNEKKRGAAGGNLSSRCVRAARETSYQWKAERCMADENCFKVMFLQRKGQVIMTIELLDTEEAQTEDPVEVQHLARYVEQYVGTEGASSSPTEGFLLKPVFLQRNLKKFRRRWQSEQARALRGEARSSWKRLVGVESACDVDCRFKLSTHKMVFIVNSEDYMYRRGTLCRAKQVQPLVLLRHHQHFEEWHSRWLEDNVTVEAASLVQDWLMGEEDEDMVPCKTLCETVHVHGLPVTRYRVQYSRRPASP [SIN3B] | -0.231 | 0.0177 | 47.9 | 49.3
RERE | -0.116 | 0.148 | – | 50.7
MTKIKADPDGPEAQAEACSGERTYQELLVNQNPIAQPLASRRLTRKLYKCIKKAVKQKQIRRGVKEVQKFVNKGEKGIMVLAGDTLPIEVYCHLPVMCEDRNLPYVYIPSKTDLGAAAGSKRPTCVIMVKPHEEYQEAYDECLEEVQSLPLPL [NHP2] | -1.1 | 1.21 | 55.3 | 54.1
MSRLIVKNLPNGMKEERFRQLFAAFGTLTDCSLKFTKDGKFRKFGFIGFKSEEEAQKAQKHFNKSFIDTSRITVEFCKSFGDPAKPRAWSKHAQKPSQPKQPPKDSTTPEIKKDEKKKKVAGQLEKLKEDTEFQEFLSVHQRRAQAATWANDGLDAEPSKGKSKPASDYLNFDSDSGQESEEEGAGEDLEEEASLEPKAAVQKELSDMDYLKSKMVKAGSSSSSEEEESEDEAVHCDEGSEAEEEDSSATPVLQERDSKGAGQEQGMPAGKKRPPEARAETEKPANQKEPTTCHTVKLRGAPFNVTEKNVMEFLAPLKPVAIRIVRNAHGNKTGYIFVDFSNEEEVKQALKCNREYMGGRYIEVFREKNVPTTKGAPKNTTKSWQGRILGENEEEEDLAESGRLFVRNLPYTSTEEDLEKLFSKYGPLSELHYPIDSLTKKPKGFAFITFMFPEHAVKAYSEVDGQVFQGRMLHVLPSTIKKEASEDASALGSSSYKKKKEAQDKANSASSHNWNTLFMGPNAVADAIAQKYNATKSQVFDHETKGSVAVRVALGETQLVQEVRRFLIDNGVSLDSFSQAAAERSKTVILVKNLPAGTLAAQLQETFGHFGSLGRVLLPEGGITAIVEFLEPLEARKAFRHLAYSKFHHVPLYLEWAPVGVFSSTAPQKKKLQDTPSEPMEKDPAEPETVPDGETPEDENPTEEGADNSSAKMEEEEEEEEEEEESLPGCTLFIKNLNFDTTEEKLKEVFSKVGTVKSCSISKKKNKAGVLLSMGFGFVEYRKPEQAQKALKQLQGHVVDGHKLEVRISERATKPAVTLARKKQVPRKQTTSKILVRNIPFQAHSREIRELFSTFGELKTVRLPKKMTGTGTHRGFGFVDFLTKQDAKRAFNALCHSTHLYGRRLVLEWADSEVTLQALRRKTAAHFHEPPKKKRSVVLDEILEQLEGSDSDSEEQTLQL [RBM19] | -1.27 | 0.706 | 48.5 | 51.2
RAP1GAP | 0.239 | -0.474 | 49.2 | –
MALTVDVAGPAPWGFRITGGRDFHTPIMVTKVAERGKAKDADLRPGDIIVAINGESAEGMLHAEAQSKIRQSPSPLRLQLDRSQATSPGQTNGDSSLEVLATRFQGSVRTYTESQSSLRSSYSSPTSLSPRAGSPFSPPPSSSSLTGEAAISRSFQSLACSPGLPAADRLSYSGRPGSRQAGLGRAGDSAVLVLPPSPGPRSSRPSMDSEGGSLLLDEDSEVFKMLQENREGRAAPRQSSSFRLLQEALEAEERGGTPAFLPSSLSPQSSLPASRALATPPKLHTCEKCSTSIANQAVRIQEGRYRHPGCYTCADCGLNLKMRGHFWVGDELYCEKHARQRYSAPATLSSRA [PDLIM2] | 0.17 | -0.043 | 55.6 | 53.8
MDVSGQETDWRSTAFRQKLVSQIEDAMRKAGVAHSKSSKDMESHVFLKAKTRDEYLSLVARLIIHFRDIHNKKSQASVSDPMNALQSLTGGPAAGAAGIGMPPRGPGQSLGGMGSLGAMGQPMSLSGQPPPGTSGMAPHSMAVVSTATPQTQLQLQQVALQQQQQQQQFQQQQQAALQQQQQQQQQQQFQAQQSAMQQQFQAVVQQQQQLQQQQQQQQHLIKLHHQNQQQIQQQQQQLQRIAQLQLQQQQQQQQQQQQQQQQALQAQPPIQQPPMQQPQPPPSQALPQQLQQMHHTQHHQPPPQPQQPPVAQNQPSQLPPQSQTQPLVSQAQALPGQMLYTQPPLKFVRAPMVVQQPPVQPQVQQQQTAVQTAQAAQMVAPGVQMITEALAQGGMHIRARFPPTTAVSAIPSSSIPLGRQPMAQVSQSSLPMLSSPSPGQQVQTPQSMPPPPQPSPQPGQPSSQPNSNVSSGPAPSPSSFLPSPSPQPSQSPVTARTPQNFSVPSPGPLNTPVNPSSVMSPAGSSQAEEQQYLDKLKQLSKYIEPLRRMINKIDKNEDRKKDLSKMKSLLDILTDPSKRCPLKTLQKCEIALEKLKNDMAVPTPPPPPVPPTKQQYLCQPLLDAVLANIRSPVFNHSLYRTFVPAMTAIHGPPITAPVVCTRKRRLEDDERQSIPSVLQGEVARLDPKFLVNLDPSHCSNNGTVHLICKLDDKDLPSVPPLELSVPADYPAQSPLWIDRQWQYDANPFLQSVHRCMTSRLLQLPDKHSVTALLNTWAQSVHQACLSAA [MED15] | 0.144 | 0.147 | – | 51.3
MEAEETMECLQEFPEHHKMILDRLNEQREQDRFTDITLIVDGHHFKAHKAVLAACSKFFYKFFQEFTQEPLVEIEGVSKMAFRHLIEFTYTAKLMIQGEEEANDVWKAAEFLQMLEAIKALEVRNKENSAPLEENTTGKNEAKKRKIAETSNVITESLPSAESEPVEIEVEIAEGTIEVEDEGIETLEEVASAKQSVKYIQSTGSSDDSALALLADITSKYRQGDRKGQIKEDGCPSDPTSKQVEGIEIVELQLSHVKDLFHCEKCNRSFKLFYHFKEHMKSHSTESFKCEICNKRYLRESAWKQHLNCYHLEEGGVSKKQRTGKKIHVCQYCEKQFDHFGHFKEHLRKHTGEKPFECPNCHERFARNSTLKCHLTACQTGVGAKKGRKKLYECQVCNSVFNSWDQFKDHLVIHTGDKPNHCTLCDLWFMQGNELRRHLSDAHNISERLVTEEVLSVETRVQTEPVTSMTIIEQVGKVHVLPLLQVQVDSAQVTVEQVHPDLLQDSQVHDSHMSELPEQVQVSYLEVGRIQTEEGTEVHVEELHVERVNQMPVEVQTELLEADLDHVTPEIMNQEERESSQADAAEAAREDHEDAEDLETKPTVDSEAEKAENEDRTALPVLE [ZNF131] | -0.231 | -0.0242 | 46.6 | –
MRRFKRKHLTAIDCQHLARSHLAVTQPFGQRWTNRDPNHGLYPKPRTKRGSRGQGSQRCIPEFFLAGKQPCTNDMAKSNSVGQDSCQDSEGDMIFPAESSCALPQEGSAGPGSPGSAPPSRKRSWSSEEESNQATGTSRWDGVSKKAPRHHLSVPCTRPREARQEAEDSTSRLSAESGETDQDAGDVGPDPIPDSYYGLLGTLPCQEALSHICSLPSEVLRHVFAFLPVEDLYWNLSLVCHLWREIISDPLFIPWKKLYHRYLMNEEQAVSKVDGILSNCGIEKESDLCVLNLIRYTATTKCSPSVDPERVLWSLRDHPLLPEAEACVRQHLPDLYAAAGGVNIWALVAAVVLLSSSVNDIQRLLFCLRRPSSTVTMPDVTETLYCIAVLLYAMREKGINISNRIHYNIFYCLYLQENSCTQATKVKEEPSVWPGKKTIQLTHEQQLILNHKMEPLQVVKIMAFAGTGKTSTLVKYAEKWSQSRFLYVTFNKSIAKQAERVFPSNVICKTFHSMAYGHIGRKYQSKKKLNLFKLTPFMVNSVLAEGKGGFIRAKLVCKTLENFFASADEELTIDHVPIWCKNSQGQRVMVEQSEKLNGVLEASRLWDNMRKLGECTEEAHQMTHDGYLKLWQLSKPSLASFDAIFVDEAQDCTPAIMNIVLSQPCGKIFVGDPHQQIYTFRGAVNALFTVPHTHVFYLTQSFRFGVEIAYVGATILDVCKRVRKKTLVGGNHQSGIRGDAKGQVALLSRTNANVFDEAVRVTEGEFPSRIHLIGGIKSFGLDRIIDIWILLQPEEERRKQNLVIKDKFIRRWVHKEGFSGFKRYVTAAEDKELEAKIAVVEKYNIRIPELVQRIEKCHIEDLDFAEYILGTVHKAKGLEFDTVHVLDDFVKVPCARHNLPQLPHFRVESFSEDEWNLLYVAVTRAKKRLIMTKSLENILTLAGEYFLQAELTSNVLKTGVVRCCVGQCNNAIPVDTVLTMKKLPITYSNRKENKGGYLCHSCAEQRIGPLAFLTASPEQVRAMERTVENIVLPRHEALLFLVF [FBXO18] | -0.21 | -0.0335 | 51.7 | 52.4
MSYYLSSENHLDPGPIYMRENGQLHMVNLALDGVRSSLQKPRPFRLFPKGFSVELCMNREDDTARKEKTDHFIFTYTREGNLRYSAKSLFSLVLGFISDNVDHIDSLIGFPEQIAEKLFSAAEARQKFTEPGAGLRALQKFTEAYGSLVLCSLCLRNRYLVISEKLEEIKSFRELTCLDLSCCKLGDEHELLEHLTNEALSSVTQLHLKDNCLSDAGVRKMTAPVRVMKRGLENLTLLDLSCNPEITDAGIGYLFSFRKLNCLDISGTGLKDIKTVKHKLQTHIGLVHSKVPLKEFDHSNCKTEGWADQIVLQWERVTAEAVKPRETSEPRAAAQRFYGKRSRAEAPLKCPLADTHMNSSEKLQFYKEKAPDCHGPVLKHEAISSQESKKSKKRPFEESETEQNNSSQPSKQKYVCLAVEDWDLLNSY [LRRC42] | -0.0147 | -0.111 | 49 | 50.9
